Where no end group is shown, it is not given here.
B1: IMA-NOX-001 (peptide)
peptide: ILAPVILYI
B2: IMA-MUC-001 (peptide)
peptide: STAPPVHNV
B3: IMA-C20-001 (peptide)
peptide: ALSNLEVTL
modifications: also: acetate salt
B4: IMA-CCN-001 (peptide)
peptide: LLGATCMFV
B5: IMA-TOP-001 (peptide)
peptide: KIFDEILVNA
B6: IMA-PCN-001 (peptide)
peptide: KLMDLDVEQL
B7: IMA-MET-001 (peptide)
peptide: YVDPVITSI
B8: IMA-TGFBI-001 (peptide)
peptide: ALFVRLLALA
B9: IMA-ODC-001 (peptide)
peptide: ILDQKINEV

Legend:
[1] = target: T1, recombinant HLA-A*0201 molecule (HLA-A*0201 heavy chain refolded with beta-2 microglobulin) (human); assay: ELISA-based HLA refolding assay
Description: (§1) The amount of de novo-folded HLA/peptide complexes was determined by a quantitative ELISA. Dissociation constants (KD values) were calculated using a standard curve recorded from dilutions of a calibrant HLA/peptide complex.

[2] = target: T1, recombinant HLA-A*0201 molecule …; assay: remark on making pMHC monomers for in vitro stimulation
[3] = target: T1, recombinant HLA-A*0201 molecule …; assay: ELISA-based HLA refolding assay: recombinant HLA-A*0201 heavy chain with b2m and graded doses of peptide
Description: as §1

Binder | binding result [1] | other results
B1 | binds | –
B2 | – | binding result [2]: binds
B3 | binds | –
B4 | binds | –
B5 | binds | –
B6 | binds | –
B7 | binds | –
B8 | – | Kd [3]: 0.001 nM
B9 | – | Kd [3]: 0.2 nM
